From patent US20230181671A1 (published 2023)
Changes are numbered by the printed parent chain.

B1: Antibody 15, monomeric Fab (Fab, V domains shown)
VH: QVQLVQSGSELKKPGASVKVSCKASGYTFTSSGISWVRQAPGQGLEWMGEILPRSGYTNYNQGFTGRFVFSADKSVSTAYLQISSLKAEDTAVYYCARDFKGGRYAMDYWGQGTTVTVSS
VL: SIQMTQSPSSLSASVGDRVTITCQASQSVRYNVAWYQQKPGKAPKLLIYYASNRYEGVPSRFSGSGSGTDFTFTISSLQPEDIATYFCQHHYSSPLTFGGGTKLEIK
B2: Antibody 12, monomeric Fab (Fab, V domains shown)
VH: B1 VH
VL: B1 VL with E56D
B3: Antibody 13, monomeric Fab (Fab, V domains shown)
VH: B1 VH with F100K, K101G, G102P, G103S, A106T
VL: B1 VL with E56D
B4: Antibody 17, monomeric Fab (Fab, V domains shown)
VH: B1 VH with L52Q, F100K, K101G, G102P, G103A, A106T
VL: B1 VL
B5: Antibody 18, monomeric Fab (Fab, V domains shown)
VH: B1 VH with L52Q, F100K, K101G, G102P, G103A, A106T
VL: B1 VL with V29I, F87Y
B6: Antibody 16, monomeric Fab (Fab, V domains shown)
VH: B1 VH
VL: B1 VL
notes: Same VH and VL as Antibody 15; The two antibodies differ only in the silencing mutations of the heavy chain constant region
B7: anti-LPAR1 mAb with the VH of SEQ ID NO: 369 and VL of SEQ ID NO: 39 (antibody, IgG1, V domains shown)
VH: B1 VH with K101A, G102S, G103A
VL: B1 VL with E56T
notes: also called huVH4_Q61A97A99G104 (VH); 11 VL
B8: 63D8 (antibody, IgG1, V domains shown)
VH: EVKLLESGGGLVQPGGSLKLSCTASGFDFSRYWMSWVRQAPGKGLEWIGEINPSRSAINYSPSLKDKFIISRDNAKNTLYLQMSKVRSEDTALYYCARQGQRLRYGMDYWGQGTSVTVSS
VL: DIVMTQSPNFMSTSVGDRVSVTCRASQDVRTAVAWYQQKPGRSPKLLIYWTSTRHTGVPDRFTGSGSGTDYTLTISSVQAADLALYYCQQHYGTPLTFGAGTNLELK
notes: First found as a mouse hybridoma antibody
B9: Antibody 4 (antibody, IgG1, V domains shown)
VH: QVQLQQSGAELARPGASVKLSCKASGYTFTSSGISWVKQRTGQGLEWIGEIYPRSGYTNYNEKFKGKASLTADKSSRTAYMELRSLTSEDSAVYFCARDYDNSRYALDYWGQGTSVTVSS
VL: SIVMTQTPKFLPVSAGDRVTMTCKASQSVGYNVAWYQQKTGQSPKLLIYYASNRYTGVPDRFTGSGSGTDFTFTISSVQVEDLAVYFCQHHYSSPLTFGAGTKLELK

The binders below were run against T1, LPAR1 (on CHO cells; species not stated) (UniProt Q92633 1-364) (assay: KinExA (method 1.14), monomeric Fab as constant binding partner, CHO-LPAR1 cells titrated).
T1 construct: whole, on cells; also called CHO-LPAR1 cells
T1 sequence (Q92633 whole entry): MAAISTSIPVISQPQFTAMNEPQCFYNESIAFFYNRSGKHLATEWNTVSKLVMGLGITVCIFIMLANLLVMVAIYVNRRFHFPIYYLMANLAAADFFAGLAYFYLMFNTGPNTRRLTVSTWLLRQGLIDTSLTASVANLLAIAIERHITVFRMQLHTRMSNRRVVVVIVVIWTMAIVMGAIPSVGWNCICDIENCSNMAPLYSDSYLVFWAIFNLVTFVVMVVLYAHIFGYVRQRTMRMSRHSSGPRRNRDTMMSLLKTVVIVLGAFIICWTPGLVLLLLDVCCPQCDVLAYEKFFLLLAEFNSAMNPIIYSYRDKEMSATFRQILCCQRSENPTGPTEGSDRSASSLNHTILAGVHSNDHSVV
Method: The monomeric affinity constant KD for the interaction of antibodies with LPAR1 was determined using monomeric Fabs derived from the antibodies, using the KinExA method. In this method, the concentration of unbound antibody is measured against a range of antigen concentrations. Because KD=([Free antigen][Free antibody])/[Antigen-antibody complex], the value of KD can be deduced from these measurements. CHO-LPAR1 cells, the antigen source, are titrated in a background of constant binding partner (CBP, e.g. a Fab to be tested). Samples are gently rocked until equilibrium is reached. After incubation, cells are centrifuged and the free CBP is removed without disturbing the cell pellet. Beads coated with Anti-Species are used to capture a portion of free CBP. Captured CBP is detected with a fluorescently labelled Anti-CBP using the KinExA. The fluorescent signal is converted to a voltage signal that is directly proportional to the concentration of free CBP in the equilibrated sample.
B1 showed a Kd of 0.824 nM. In the case of B2, the Kd is reported as 1.28 nM. Binder B3 has a Kd of 0.993 nM. Work on B4 yielded a Kd of 1 nM. For B5, the Kd was 1.39 nM. B6 was tested, and the Kd was 0.824 nM.

What follows are binders tested against T2, human LPAR1 (full length LPAR1, SEQ ID NO: 62) (human, UniProt Q92633 1-364) (assay: transient-transfection CIFAT (protocol 1.11) on CHO-K1 cells expressing human LPAR1 and alanine variants).
T2 construct: Also used here for hLPAR1 in HEK293 cells (method 1.15); also called Lysophosphatidic Acid Receptor 1; LPA1
T2 sequence (Q92633 whole entry): as above
Method: (§1) CHO-K1 cells were seeded in clear 96-well plates at 20,000 cells per 200 μL full growth medium and incubated for 24 hours at 37° C. The following day, in a sterile tube, 0.0309 uL/well PEI (Generon, MW 160,000) was diluted into 10 uL/well transfection medium (DMEM supplemented with 2 mM L-glutamine and Penicillin-Streptomycin). The diluted PEI was added to 100 ng/well DNA encoding the target protein (human LPAR1 (SEQ ID NO: 62) unless otherwise stated), before vortexing immediately and incubating the mixture for 10 minutes at room temperature. 200 μL/well full growth medium was added to the PEI-DNA mixture, then medium in wells was taken off and 200 ul full growth medium/PEI/DNA mixture was added in the wells of the adherent cell plate. […] After washing and cell fixation with 4% PFA, the binding of the antibodies was detected using a goat anti-human Alexa Fluor 488 detection antibody (Invitrogen), incubated for 1 hour at room temperature. Fluorescence at 488 nm was measured using a BMG LABTECH ClarioStar plate reader and microscopy images were taken at 10× magnification.
Based on the epitope analysis presented in FIGS. 3 and 4, constructs were designed to test the important residues/interaction regions predicted in silico. […] CHO-K1 cells were transiently transfected with these plasm ids and the binding of an anti-LPAR1 mAb assessed to each of these receptor variants using protocol 1.11. […]
B7: binds.

Each binder was assayed against T2, human LPAR1 (full length LPAR1, SEQ ID …) (assay: transient-transfection CIFAT (method 1.11), fixed/permeabilised and live cells expressing LPAR1, microscopy).
Method: as §1, with “plate. The plate was incubated for 24 hours at 37° C. The next day, the medium was discarded and replaced with 200 μL full growth medium. The plate was incubated for 24 hours at 37° C.” for “plate.”, “magnification. […]” for “magnification.”
B8: binds. B9: binds.
